Tests used:
HLA-A*01:01 = test: IEDB peptide-MHC binding, purified MHC/competitive/fluorescence; filed as Kd, often an IC50 or EC50 that approximates it; ≥ and ≤ were set here for values at or beyond the usual limits of such assays
HLA-A*26:01 [1] = test: as above
HLA-B*15:01 [2] = test: as above
HLA-A*02:01 [3] = test: IEDB peptide-MHC binding, purified MHC/competitive/radioactivity; filed as Kd, often an IC50 or EC50 that approximates it; ≥ and ≤ were set here for values at or beyond the usual limits of such assays
HLA-A*68:02 [4] = test: as above
HLA-A*02:17 = test: as above
HLA-A*02:03 [5] = test: as above
HLA-A*02:06 = test: as above
HLA-A*32:01 = test: as above; conditions: source organism: Dengue virus 2 Peru/IQT2913/1996
HLA-B*58:01 [6] = test: IEDB peptide-MHC binding, purified MHC/competitive/fluorescence; filed as Kd, often an IC50 or EC50 that approximates it; ≥ and ≤ were set here for values at or beyond the usual limits of such assays
HLA-B*46:01 [7] = test: as above
HLA-B*57:01 [8] = test: IEDB peptide-MHC binding, purified MHC/direct/fluorescence; filed as Kd, often an IC50 or EC50 that approximates it; ≥ and ≤ were set here for values at or beyond the usual limits of such assays
HLA-B*35:01 = test: IEDB peptide-MHC binding, purified MHC/competitive/radioactivity; filed as Kd, often an IC50 or EC50 that approximates it; ≥ and ≤ were set here for values at or beyond the usual limits of such assays; conditions: source organism: Dengue virus 3 Martinique/1243/1999
HLA-A*02:01 [9] = test: IEDB peptide-MHC binding, purified MHC/competitive/fluorescence; filed as Kd, often an IC50 or EC50 that approximates it; ≥ and ≤ were set here for values at or beyond the usual limits of such assays; conditions: source organism: Orthohantavirus negraense
HLA-A*69:01 = test: as above; conditions: source organism: Orthohantavirus negraense
HLA-B*39:01 = test: as above; conditions: source organism: Orthohantavirus negraense
HLA-A*03:01 [10] = test: as above
HLA-B*27:03 = test: as above; conditions: source organism: Orthohantavirus negraense
HLA-B*51:01 = test: as above; conditions: source organism: Orthohantavirus negraense
HLA-B*15:17 [11] = test: as above; conditions: source organism: Orthohantavirus negraense
HLA-B*18:01 [12] = test: as above; conditions: source organism: Orthohantavirus negraense
HLA-B*57:01 [13] = test: as above; conditions: source organism: Orthohantavirus negraense
HLA-A*02:19 = test: IEDB peptide-MHC binding, purified MHC/direct/fluorescence; filed as Kd, often an IC50 or EC50 that approximates it; ≥ and ≤ were set here for values at or beyond the usual limits of such assays; conditions: source organism: Orthohantavirus negraense
HLA-A*29:02 = test: as above; conditions: source organism: Orthohantavirus negraense
HLA-A*02:12 = test: as above; conditions: source organism: Orthohantavirus negraense
HLA-A*02:16 = test: as above; conditions: source organism: Orthohantavirus negraense
HLA-A*02:03 [14] = test: as above; conditions: source organism: Orthohantavirus negraense
HLA-A*24:03 = test: as above; conditions: source organism: Orthohantavirus negraense
HLA-A*11:01 = test: as above; conditions: source organism: Shigella sonnei Ss046
HLA-A*02:01 [15] = test: as above; conditions: source organism: Shigella sonnei Ss046
HLA-A*31:01 = test: as above; conditions: source organism: Shigella sonnei Ss046
HLA-A*03:01 [16] = test: as above; conditions: source organism: Shigella sonnei Ss046
HLA-B*48:01 = test: as above; conditions: source organism: Shigella sonnei Ss046
HLA-A*68:02 [17] = test: as above; conditions: source organism: Shigella sonnei Ss046
HLA-B*07:02 = test: as above; conditions: source organism: Shigella sonnei Ss046
HLA-B*40:01 = test: as above; conditions: source organism: Shigella sonnei Ss046
HLA-B*15:01 [18] = test: as above; conditions: source organism: Shigella sonnei Ss046
HLA-B*27:05 = test: as above; conditions: source organism: Shigella sonnei Ss046
HLA-B*15:17 [19] = test: as above; conditions: source organism: Shigella sonnei Ss046
HLA-B*18:01 [20] = test: as above; conditions: source organism: Shigella sonnei Ss046
HLA-B*58:01 [21] = test: as above; conditions: source organism: Shigella sonnei Ss046
HLA-B*46:01 [22] = test: as above; conditions: source organism: Shigella sonnei Ss046
HLA-A*26:01 [23] = test: IEDB peptide-MHC binding, purified MHC/competitive/radioactivity; filed as Kd, often an IC50 or EC50 that approximates it; ≥ and ≤ were set here for values at or beyond the usual limits of such assays; conditions: source organism: Dengue virus 2 Jamaica/1409/1983
[24] = source organism: Escherichia coli 536
[25] = source organism: Dengue virus 3 China/80-2/1980
[26] = source organism: Dengue virus 3 Martinique/1243/1999
[27] = source organism: Dengue virus 2 Thailand/NGS-C/1944
[28] = source organism: Dengue virus 2 Peru/IQT2913/1996
[29] = source organism: Francisella tularensis subsp. tularensis FSC198
[30] = source organism: Dengue virus 4 Dominica/814669/1981
[31] = source organism: Dengue virus 2 Jamaica/1409/1983
[32] = source organism: Orthohantavirus negraense
[33] = source organism: Dengue virus 4 Philippines/H241/1956
[34] = source organism: Salmonella enterica subsp. enterica serovar Typhi

Which Kd (HLA-A*01:01; [24]) does the source give for AVASLLDEY here?
The Kd was 720 nM.

What about the Kd (HLA-A*26:01 [1]; [24]) of the same sequence?
Its Kd is 871 nM.

And the Kd (HLA-B*15:01 [2]; [24])?
Its Kd is 96.2 nM.

What does the source list for FTMGVLCLA?
Kd (HLA-A*02:01 [3]; [25]): 12.3 nM; Kd (HLA-A*68:02 [4]; [26]): 12.5 nM; Kd (HLA-A*02:17; [25]): 6740 nM; Kd (HLA-A*02:03 [5]; [26]): 28.7 nM; Kd (HLA-A*02:06; [26]): 3.17 nM

GLFPVSIPI was tested. Which Kd (HLA-A*32:01) did it give?
Its Kd is 6.47 nM.

What about the Kd (HLA-A*02:01 [3]; [27]) of the same sequence?
The Kd was 2.13 nM.

What about the Kd (HLA-A*02:17; [27]) of the same sequence?
Its Kd is 69.9 nM.

What about the Kd (HLA-A*02:03 [5]; [28]) of the same sequence?
The Kd was 4.32 nM.

Which Kd (HLA-B*58:01 [6]; source organism: Influenza A virus (A/parakeet/Narita/92A/98(H9N2))) does the source give for GVLIGGLEW here?
The Kd was 552 nM.

With ISTHIGFSF as the sequence, how does the Kd (HLA-B*58:01 [6]; [29]) read?
The Kd was 1.5 nM.

What about the Kd (HLA-B*46:01 [7]; [29]) of the same sequence?
Its Kd is no less than 20000 nM.

What about the Kd (HLA-B*57:01 [8]; source organism: Francisella tularensis subsp. holarctica LVS) of the same sequence?
Its Kd is 125 nM.

How did the Kd (HLA-A*02:01 [3]; [30]) turn out when KMSPGYVLGV was run?
Its Kd is 4.44 nM.

What about the Kd (HLA-A*02:17; [30]) of the same sequence?
Its Kd is 324 nM.

What about the Kd (HLA-A*02:03 [5]; [30]) of the same sequence?
Its Kd is 0.57 nM.

What about the Kd (HLA-A*02:06; [30]) of the same sequence?
Its Kd is 70.4 nM.

With KSLIISFAF as the sequence, how does the Kd (HLA-B*58:01 [6]; source organism: Bacillus anthracis str. A0488) read?
The Kd was 391 nM.

LLVISGLFPV was tested. Which Kd (HLA-A*02:17; [27]) did it give?
Its Kd is 45.5 nM.

What about the Kd (HLA-A*02:03 [5]; [28]) of the same sequence?
Its Kd is 4.84 nM.

What about the Kd (HLA-A*02:06; [28]) of the same sequence?
The Kd was 1.13 nM.

Which results are given for MLWMAEIPL?
Kd (HLA-A*02:01 [3]; [26]): 4.11 nM; Kd (HLA-A*02:17; [26]): 9.18 nM; Kd (HLA-B*35:01): 408 nM

Which Kd (HLA-A*02:01 [3]; [31]) does the source give for SLLFKTEDGV here?
The Kd was 67.4 nM.

What about the Kd (HLA-A*02:17; [31]) of the same sequence?
The Kd was 719 nM.

Which results are given for SLLFREVWK?
Kd (HLA-A*02:01 [9]): ≥ 20000 nM; Kd (HLA-A*69:01): ≥ 20000 nM; Kd (HLA-B*39:01): ≥ 20000 nM; Kd (HLA-A*03:01 [10]; [32]): 37.4 nM; Kd (HLA-A*26:01 [1]; [32]): ≥ 20000 nM; Kd (HLA-B*27:03): ≥ 20000 nM; Kd (HLA-B*51:01): ≥ 20000 nM; Kd (HLA-B*15:01 [2]; [32]): ≥ 20000 nM; Kd (HLA-B*15:17 [11]): ≥ 20000 nM; Kd (HLA-B*18:01 [12]): ≥ 20000 nM; Kd (HLA-B*46:01 [7]; [32]): ≥ 20000 nM; Kd (HLA-B*57:01 [13]): ≥ 20000 nM; Kd (HLA-A*02:19): ≥ 20000 nM; Kd (HLA-A*29:02): ≥ 20000 nM; Kd (HLA-A*02:12): ≥ 20000 nM; Kd (HLA-A*02:16): ≥ 20000 nM; Kd (HLA-A*02:03 [14]): ≥ 20000 nM; Kd (HLA-A*24:03): ≥ 20000 nM

How did the Kd (HLA-A*02:01 [3]; [31]) turn out when SLSVSLVLV was run?
Its Kd is 58.5 nM.

And the Kd (HLA-A*02:17; [31])?
The Kd was 4450 nM.

And the Kd (HLA-A*02:03 [5]; [31])?
The Kd was 1.86 nM.

How did the Kd (HLA-A*02:01 [3]; [33]) turn out when TLLCLIPTA was run?
The Kd was 5.77 nM.

And the Kd (HLA-A*02:17; [33])?
The Kd was 9560 nM.

How did the Kd (HLA-A*02:01 [3]; [33]) turn out when TLMLVALLGA was run?
The Kd was 5.42 nM.

What about the Kd (HLA-A*02:17; [33]) of the same sequence?
Its Kd is 11000 nM.

What about the Kd (HLA-A*02:03 [5]; [33]) of the same sequence?
The Kd was 14.4 nM.

What about the Kd (HLA-A*02:06; [33]) of the same sequence?
Its Kd is 378 nM.

With VLDMGDPVK as the sequence, how does the Kd (HLA-A*01:01; source organism: Paraglaciecola sp. T6c) read?
Its Kd is 2590 nM.

And the Kd (HLA-A*11:01)?
Its Kd is 7000 nM.

And the Kd (HLA-A*02:01 [15])?
Its Kd is no less than 20000 nM.

And the Kd (HLA-A*31:01)?
Its Kd is no less than 20000 nM.

And the Kd (HLA-A*03:01 [16])?
The Kd was 2090 nM.

What about the Kd (HLA-B*48:01) of the same sequence?
The Kd was no less than 20000 nM.

And the Kd (HLA-A*68:02 [17])?
The Kd was no less than 20000 nM.

What about the Kd (HLA-B*07:02) of the same sequence?
Its Kd is no less than 20000 nM.

What about the Kd (HLA-B*40:01) of the same sequence?
Its Kd is no less than 20000 nM.

What about the Kd (HLA-B*15:01 [18]) of the same sequence?
The Kd was no less than 20000 nM.

And the Kd (HLA-B*27:05)?
The Kd was no less than 20000 nM.

And the Kd (HLA-B*15:17 [19])?
The Kd was no less than 20000 nM.

What about the Kd (HLA-B*18:01 [20]) of the same sequence?
The Kd was no less than 20000 nM.

What about the Kd (HLA-B*58:01 [21]) of the same sequence?
Its Kd is no less than 20000 nM.

What about the Kd (HLA-B*46:01 [22]) of the same sequence?
The Kd was no less than 20000 nM.

And the Kd (HLA-B*57:01 [8]; source organism: Shigella sonnei Ss046)?
The Kd was no less than 20000 nM.

Which Kd (HLA-A*02:01 [3]; [25]) does the source give for VLLLVTHYAI here?
The Kd was 219 nM.

What about the Kd (HLA-A*02:17; [25]) of the same sequence?
Its Kd is 561 nM.

Which results are given for WTMKILIGV?
Kd (HLA-A*02:01 [3]; [31]): 22.5 nM; Kd (HLA-A*68:02 [4]; [31]): 8.95 nM; Kd (HLA-A*02:17; [31]): 6060 nM; Kd (HLA-A*26:01 [23]): 5360 nM; Kd (HLA-A*02:06; [31]): 17.7 nM

WVAGVQLLY was tested. Which Kd (HLA-A*03:01 [10]; [34]) did it give?
Its Kd is 486 nM.

And the Kd (HLA-A*01:01; [34])?
The Kd was 39 nM.

Source: the Immune Epitope Database (IEDB)
